Assay results published in patent US20220265821A1 (PASCAL BIOSCIENCES, published 2022).
Changes are numbered by the printed parent chain. Where two headings read alike, the source gives them in different places.

B1: lambda-5 antibody 4-19A9 (recombinant mouse-human chimeric IgG1/kappa) (antibody, V domains shown)
VH: EVQLQQSGTVLARPGASVKMSCKASGYTFTSYWMHWVKQRPGQGLEWIGAIYPGNSDTSYNQKFKGKARLTAVTSASTAYMELSSLTNEDSAVYYCTRADYDGTPFDYWGQGTTLTVSS
VL: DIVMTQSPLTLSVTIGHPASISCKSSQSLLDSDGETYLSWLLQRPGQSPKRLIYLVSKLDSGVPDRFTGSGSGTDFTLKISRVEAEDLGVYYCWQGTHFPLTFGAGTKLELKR
notes: also called mAb 4-19A9
B2: lambda-5 antibody 4-6D12 (recombinant mouse-human chimeric IgG1/kappa) (antibody, V domains shown)
VH: B1 VH with S31N, R69K, Y95F
VL: DILMTQSPLTLSVTIGHPASISCKSSQSLLDSDGETYLSWLLQRPGQSPERLIYLVSKLDSGVPDRFTGSGSGTDFTLKISRVEAEDLGVYYCWQGTHFPLTFGAGTKLELKR
notes: also called mAb 4-6D12
B3: lambda-5 antibody 4-18G6 (recombinant mouse-human chimeric IgG1/kappa) (antibody, V domains shown)
VH: B1 VH with S31N, I51V, N61S, K65T, R69K, E82D
VL: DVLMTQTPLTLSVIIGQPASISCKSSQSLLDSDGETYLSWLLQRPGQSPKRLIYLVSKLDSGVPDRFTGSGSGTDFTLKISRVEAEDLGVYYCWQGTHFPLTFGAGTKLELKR
notes: also called mAb 4-18G6
B4: lambda-5 antibody 4-7A6 (recombinant mouse-human chimeric IgG1/kappa) (antibody, V domains shown)
VH: B1 VH with A16T, P53L, S56T, R69K, T78S
VL: B2 VL with I2V, L3V, S7N, P8A, K24R, E50K
notes: also called mAb 4-7A6
B5: lambda-5 antibody 4-20D2 (recombinant mouse-human chimeric IgG1/kappa) (antibody, V domains shown)
VH: B1 VH with T28S, R69K, A99G
VL: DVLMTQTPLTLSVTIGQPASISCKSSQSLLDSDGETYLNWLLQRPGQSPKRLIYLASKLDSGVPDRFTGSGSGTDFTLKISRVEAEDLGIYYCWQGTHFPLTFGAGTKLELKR
notes: also called mAb 4-20D2
B6: lambda-5 antibody 4-7C1 (recombinant mouse-human chimeric IgG1/kappa) (antibody, V domains shown)
VH: B1 VH with K23R, A24P, G44D, R69K
VL: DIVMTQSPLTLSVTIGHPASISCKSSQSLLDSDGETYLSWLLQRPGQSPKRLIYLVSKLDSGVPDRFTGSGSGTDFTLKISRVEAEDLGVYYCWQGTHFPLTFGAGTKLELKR
notes: also called mAb 4-7C1
B7: lambda-5 antibody 4-17G9 (recombinant mouse-human chimeric IgG1/kappa) (antibody, V domains shown)
VH: B1 VH with K23Q, S31N, K63N, R69E, S77T, N88D
VL: B2 VL with L3V, E50K, L109V
notes: also called mAb 4-17G9
B8: VpreB antibody 5-2D7 (recombinant mouse-human chimeric IgG1/kappa) (antibody, V domains shown)
VH: QVQLQQPGAELVKPGASVKLSCKASGYTFTSYWMQWVKQRPGQGLEWIGEINPSNGRINYNEKFKSKATLTVDISSSTAYMQLSSLTSEDSAVYYCARSGLLDYWGQGTTLTDSS
VL: DVLMTQTPLSLPVSLGDQASISCRSSQSLIHSNGNTYLHWSLQKPGQSPKLLIYKVSNRFSGVPDRFSGSGSGTDFTLKISSVEAEDLGVYFCSQSTYVPLTFGAGTKLELKR
notes: also called mAb 5-2D7
B9: VpreB antibody 5-11D1 (recombinant mouse-human chimeric IgG1/kappa) (antibody, V domains shown)
VH: EVQLEESGPSLVKPSQTLSLTCSVTGDSITSDYWTWIRKFPGNKLEYMGYISYSGRTYYNPSLKSRISITRDTSRNQYYLQLSSVTTEDTATYYCARERYYYGSLDYWGQGTTLTVSS
VL: B8 VL with I30V, S41Y, S82R, S96T, Y98H, L101P, A105G, L111I
notes: also called mAb 5-11D1
B10: lambda-5 antibody 4-15E6 (recombinant mouse-human chimeric IgG1/kappa) (antibody, V domains shown)
VH: EVQLEESGAELVRSGASVKLSCTASGFNIKDYYLHWVKQRPEQGLEWIGWIDPENGNTDYAPKFQGKATMTADTSSNTAYLQLSSLTSEDTAVYYCNEGYYDYDTDSAMDYWGQGTSVTVSS
VL: B8 VL with I30V, N33D, N35I, S41Y, S82R, Y98R, L101W, A105G, L111I
notes: also called mAb 4-15E6
B11: VpreB antibody 5-9B12 (recombinant mouse-human chimeric IgG1/kappa) (antibody, V domains shown)
VH: B9 VH with R75K, N76K, S83N
VL: B8 VL with L3V, I30V, S41Y, S82R, S96T, Y98H, L101P, A105G, L111I
notes: also called mAb 5-9B12
B12: VpreB antibody 5-14A8 (recombinant mouse-human chimeric IgG1/kappa) (antibody, V domains shown)
VH: B9 VH with K44I, Y53S, T57I, R75K
VL: B8 VL with S28G, I30V, S41Y, S82R, S96T, Y98H, L101P, A105G, L111I
notes: also called mAb 5-14A8
B13: VpreB antibody 5-14H5 (recombinant mouse-human chimeric IgG1/kappa) (antibody, V domains shown)
VH: B8 VH with Y32N, Q35N, I74K, D113V
VL: B8 VL with I30V, S41Y, S82R, V99L, K108R
notes: also called mAb 5-14H5
B14: VpreB antibody 5-4A9 (recombinant mouse-human chimeric IgG1/kappa) (antibody, V domains shown)
VH: B8 VH with Q1E, P7S, K19Q, I58N, S66R, I74T, D113V
VL: B8 VL with I30V, S41Y, K79T, S82R
notes: also called mAb 5-4A9
B15: lambda-5 antibody 4-12G1 (recombinant mouse-human chimeric IgG1/kappa) (antibody, V domains shown)
VH: B10 VH with N57A, T69S, S88F, T105A
VL: B8 VL with I30V, N33D, N35I, S41Y, S82R, T97A, Y98R, L101W, A105G, L111I
notes: also called mAb 4-12G1
B16: lambda-5 antibody 4-5G11 (recombinant mouse-human chimeric IgG1/kappa) (antibody)
heavy: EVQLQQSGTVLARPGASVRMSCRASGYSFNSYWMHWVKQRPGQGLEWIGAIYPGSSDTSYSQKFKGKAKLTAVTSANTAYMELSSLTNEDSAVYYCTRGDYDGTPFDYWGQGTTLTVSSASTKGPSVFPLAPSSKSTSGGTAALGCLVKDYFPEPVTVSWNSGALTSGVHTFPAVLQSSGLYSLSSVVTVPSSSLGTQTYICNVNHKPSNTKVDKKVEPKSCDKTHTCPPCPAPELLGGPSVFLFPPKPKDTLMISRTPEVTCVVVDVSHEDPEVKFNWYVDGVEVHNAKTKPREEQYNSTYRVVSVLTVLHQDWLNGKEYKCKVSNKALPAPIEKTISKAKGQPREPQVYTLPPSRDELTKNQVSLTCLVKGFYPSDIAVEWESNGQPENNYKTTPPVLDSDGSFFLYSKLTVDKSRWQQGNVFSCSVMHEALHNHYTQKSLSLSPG
light: DILMTQSPLTLSVTIGQPASISCKSGQSLLDSDGKTYLNWLLQRPGQSPKRLIYLVSKLHSGVPDRFTGSGSGTDFTLKISRVEAEDLGVYYCWQGTHFPLTFGAGTKLELKRTVAAPSVFIFPPSDEQLKSGTASVVCLLNNFYPREAKVQWKVDNALQSGNSQESVTEQDSKDSTYSLSSTLTLSKADYEKHKVYACEVTHQGLSSPVTKSFNRGEC
notes: also called mAb 4-5G11
B17: lambda-5 antibody 4-9H8 (recombinant mouse-human chimeric IgG1/kappa) (antibody)
heavy: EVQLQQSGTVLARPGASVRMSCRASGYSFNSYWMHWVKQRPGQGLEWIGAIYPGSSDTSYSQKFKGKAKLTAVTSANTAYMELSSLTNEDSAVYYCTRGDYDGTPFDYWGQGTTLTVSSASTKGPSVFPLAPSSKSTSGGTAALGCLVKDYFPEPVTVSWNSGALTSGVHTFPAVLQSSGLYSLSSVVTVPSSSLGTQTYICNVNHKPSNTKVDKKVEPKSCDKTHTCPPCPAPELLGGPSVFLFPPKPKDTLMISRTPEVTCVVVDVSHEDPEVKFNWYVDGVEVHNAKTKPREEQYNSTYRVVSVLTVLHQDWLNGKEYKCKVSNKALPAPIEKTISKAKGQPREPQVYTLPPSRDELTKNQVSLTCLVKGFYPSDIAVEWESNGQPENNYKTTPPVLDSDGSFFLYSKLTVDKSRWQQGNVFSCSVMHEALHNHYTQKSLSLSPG
light: B16 light with L3V
notes: also called mAb 4-9H8

What was measured:
Assay in all cases: flow cytometry, saturation binding of recombinant chimeric mAb to NALM-6 cells
[1] = biological target: T1, human lambda-5 (on the pre-BCR-expressing human pre-B cell line NALM-6) (human, UniProt P15814 38-213)
T1 construct: On NALM-6 cells lambda-5 stands in the pre-BCR together with VpreB and the mu heavy chain; also called IGLL1; lambda-5 subunit of the SLC of human pre-BCR
T1 sequence (P15814 38-213 limits assumed): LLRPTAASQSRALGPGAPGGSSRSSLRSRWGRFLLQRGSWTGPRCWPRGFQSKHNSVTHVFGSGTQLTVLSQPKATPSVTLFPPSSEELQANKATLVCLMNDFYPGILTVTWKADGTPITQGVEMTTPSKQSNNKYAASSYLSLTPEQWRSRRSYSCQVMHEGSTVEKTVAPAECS

[2] = biological target: T1, human lambda-5 (on the …); remark: listed apart in the source
Method: (§1) Avidity of each VpreB antibody was determined by measuring saturation binding kinetics of antibody to NALM-6 cells using flow cytometry as follows. The cells were stained with a 3-fold descending titration of recombinant, chimeric VpreB antibody ranging from 133 nM to 0.002 nM. A PE/Cy5-labeled mouse anti-human IgG1 secondary antibody (Southern Biotech #9042-13) was used to detect cell-bound anti-VpreB or an IgG1 isotype control antibody (PAS-ISO6H4). The 50% effective concentration (EC₅₀) was calculated using GraphPad Prism software. Antibodies 5-4A9, 5-11D1, 5-14A8, and 5-14H5 all bound to VpreB-expressing NALM-6 cells with unusually strong binding avidity (<400 pM; FIG. 13, Table 16).
The avidity of each lambda-5 antibody was determined by measuring saturation binding kinetics of recombinant, chimeric mAb to NALM-6 cells using flow cytometry as described for the VpreB antibody saturation binding kinetics experiment. Antibodies 4-6D12, 4-5G11, 4-7A6, 4-7C1, 4-9H8, 4-12G1, 4-15E6, 4-17G9, 4-18G6, 4-19A9, and 4-20D2 all bound to VpreB- expressing NALM-6 cells with strong avidity (<30 nM; FIG. 16, Table 18).

[3] = biological target: T2, human VpreB (on the pre-BCR-expressing human pre-B cell line NALM-6) (human, UniProt P12018 20-145)
T2 construct: On NALM-6 cells VpreB stands in the pre-BCR together with lambda-5 and the mu heavy chain; also called VPREB1; VpreB subunit of the SLC of human pre-BCR
T2 sequence: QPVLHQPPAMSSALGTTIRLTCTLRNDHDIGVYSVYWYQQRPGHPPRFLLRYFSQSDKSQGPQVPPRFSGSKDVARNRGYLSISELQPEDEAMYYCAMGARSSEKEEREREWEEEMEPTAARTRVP

[4] = biological target: T2, human VpreB (on the pre-BCR-expressing …); remark: listed apart in the source
Method: as §1
The binding avidity of the VpreB mAbs 5-2D7 and 5-9B12 was also determined by measuring saturation binding kinetics of recombinant, chimeric mAb to NALM-6 cells using flow cytometry as described above. Both mAbs bound to VpreB-expressing NALM-6 cells with unusually strong avidity (<400 pM; FIG. 15, Table 17).

[5] = biological target: T2, human VpreB (on the pre-BCR-expressing …); remark: listed apart in the source
Method: as §1

Binder	EC50 [1] [nM]	EC50 [2] [nM]	EC50 [3] [nM]	EC50 [4] [nM]	EC50 [5] [nM]
B1	< 30	8.1	–	–	–
B2	< 30	1.9	–	–	–
B3	< 30	10.2	–	–	–
B4	< 30	2.3	–	–	–
B5	< 30	26.3	–	–	–
B6	< 30	8.4	–	–	–
B7	< 30	9	–	–	–
B8	–	–	< 0.4	0.34	–
B9	–	–	< 0.4	–	0.143
B10	< 30	3.7	–	–	–
B11	–	–	< 0.4	0.12	–
B12	–	–	< 0.4	–	0.227
B13	–	–	< 0.4	–	0.115
B14	–	–	< 0.4	–	0.396
B15	< 30	4.5	–	–	–
B16	< 30	6.2	–	–	–
B17	< 30	7.4	–	–	–
